Assay results: paper PMC11599015
pKd: −log10 of the molar value.

Target: recombinant circular RABV N10-RNA complex purified from insect cells (phosphorylated) (rabies virus (RABV)) (UniProt Q8JXF6)
Experiment: SPR

recombinant circular RABV N10-RNA complex purified from insect cells (phosphorylated) (rabies virus (RABV)), sequence (Q8JXF6 whole entry, one chain of several): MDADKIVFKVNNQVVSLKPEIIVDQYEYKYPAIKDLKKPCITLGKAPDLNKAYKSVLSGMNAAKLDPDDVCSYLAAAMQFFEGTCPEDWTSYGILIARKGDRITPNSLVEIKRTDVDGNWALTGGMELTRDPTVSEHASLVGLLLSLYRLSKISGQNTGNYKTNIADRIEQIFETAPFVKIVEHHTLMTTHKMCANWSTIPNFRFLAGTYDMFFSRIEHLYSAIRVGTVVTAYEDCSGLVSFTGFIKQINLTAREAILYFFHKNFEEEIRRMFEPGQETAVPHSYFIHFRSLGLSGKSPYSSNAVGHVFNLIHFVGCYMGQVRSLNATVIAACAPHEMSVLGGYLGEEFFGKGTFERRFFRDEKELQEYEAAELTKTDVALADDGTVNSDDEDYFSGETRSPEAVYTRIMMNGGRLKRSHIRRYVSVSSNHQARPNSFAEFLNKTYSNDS

RABV phosphoprotein P deleted of residues 90-133 (dimerization domain) (domain or fragment)
pKd: 7.10
stoichiometry N: 1.7
